{"source": "the supplement of paper PMC9112550", "about": "“Optimization of the antimicrobial peptide Bac7 by deep mutational scanning” (BMC Biology, 2022);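 note: peptides expressed intracellularly from a pBAD plasmid library in pooled LB shake-flask culture, induced with 0.3% L-arabinose, DNA abundance read by NGS, three biological replicates, DESeq2 with apeglm shrinkage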"}
{"test_system": "Escherichia coli TOP10", "experiment": "shrunken log2 fold change of peptide-encoding DNA abundance (4.5 h post-induction vs induction); higher = less antimicrobial activity (less host growth inhibition)", "conditions": "time post-induction: 4.5 h; library: site-saturation at positions 5, 18, 19, 20"}
{"sequence": "RRIRRRPPRLPRPRPRPFSIPRP", "shrunken log2 fold change": -0.254}
{"sequence": "RRIRPRPPRLPRPRPRPTADPRP", "shrunken log2 fold change": 0.407}
{"sequence": "RRIRVRPPRLPRPRPRPRRMPRP", "shrunken log2 fold change": 0.422}
{"sequence": "RRIRDRPPRLPRPRPRPYITPRP", "shrunken log2 fold change": -0.879}
{"sequence": "RRIRSRPPRLPRPRPRPRPTPRP", "shrunken log2 fold change": 0.391}
{"sequence": "RRIRTRPPRLPRPRPRPFSCPRP", "shrunken log2 fold change": -0.0158}
{"sequence": "RRIRERPPRLPRPRPRPNKWPRP", "shrunken log2 fold change": -0.576}
{"sequence": "RRIRQRPPRLPRPRPRPIYMPRP", "shrunken log2 fold change": -0.113}
{"sequence": "RRIRDRPPRLPRPRPRPNFSPRP", "shrunken log2 fold change": -0.0622}
{"sequence": "RRIRERPPRLPRPRPRPRGNPRP", "shrunken log2 fold change": -0.598}
{"sequence": "RRIRWRPPRLPRPRPRPQQFPRP", "shrunken log2 fold change": -0.262}
{"sequence": "RRIRVRPPRLPRPRPRPTMGPRP", "shrunken log2 fold change": 0.04}
{"sequence": "RRIRIRPPRLPRPRPRPCVCPRP", "shrunken log2 fold change": -0.0463}
{"sequence": "RRIRDRPPRLPRPRPRPTSLPRP", "shrunken log2 fold change": -0.0226}
{"sequence": "RRIRYRPPRLPRPRPRPLHEPRP", "shrunken log2 fold change": -0.343}
{"sequence": "RRIRMRPPRLPRPRPRPCEAPRP", "shrunken log2 fold change": 0.807}
{"sequence": "RRIRQRPPRLPRPRPRPARAPRP", "shrunken log2 fold change": 1.22}
{"sequence": "RRIRERPPRLPRPRPRPNIRPRP", "shrunken log2 fold change": -0.273}
{"sequence": "RRIRIRPPRLPRPRPRPVMPPRP", "shrunken log2 fold change": -0.142}
{"sequence": "RRIRDRPPRLPRPRPRPIIIPRP", "shrunken log2 fold change": -0.153}
{"sequence": "RRIRPRPPRLPRPRPRPTIWPRP", "shrunken log2 fold change": 0.349}
{"sequence": "RRIRCRPPRLPRPRPRPRMPPRP", "shrunken log2 fold change": 0.187}
{"sequence": "RRIRDRPPRLPRPRPRPFWHPRP", "shrunken log2 fold change": -0.166}
{"sequence": "RRIRNRPPRLPRPRPRPYPHPRP", "shrunken log2 fold change": -0.0269}
